Read-outs that look alike come from different tables or passages of the source.
Experiments:
[1] = molecular target: EA.hy926 cell surface associated TFPI (human) (UniProt P10646)
[2] = molecular target: EA.hy926 cell surface associated TFPI (human) (UniProt P10646); assay: flow cytometry on EA.hy926 cells, APC anti-human IgG secondary, median fluorescence intensity
[3] = molecular target: EA.hy926 cell surface associated TFPI (human) (UniProt P10646); remark: listed apart in the source

| Binder | EC50 (read off the curve) [1] | EC50 [2] | EC50 (read off the curve) [3] |
| --- | --- | --- | --- |
| Fab 0094 (Fab fragment of mAb 2007) (Fab, V domains shown) VH: EVQLVESGGGLVKPGGSLRLSCAASGFTFSNYAMSWVRQAPGKGLEWVSTISRSGSYSYYPDSVKGRFTISRDNAKNSLYLQMNSLRAEDTAVYYCARLGGYDEGDAMDSWGQGTTVTVSS VL: DIVMTQTPLSLSVTPGQPASISCKSSQSLLESDGKTYLNWYLQKPGQSPQLLIYLVSILDSGVPDRFSGSGSGTDFTLKISRVEAEDVGVYYCLQATHFPQTFGGGTKVEIKR |  | 3.8 nM |  |
| Fab 0088 (Fab fragment of mAb 2021) (Fab, V domains shown) VH: EVQLVESGGGLVKPGGSLRLSCAASGFTFSNYAMSWVRQTPEKRLEWVATISRSGSYSYFPDSVQGRFTISRDNAKNSLYLQMNSLRAEDTAVYYCARLGGYDEGDAMDSWGQGTTVTVSS VL: DIVMTQTPLSLSVTPGQPASISCKSSQSLLESDGKTYLNWYLQKPGQSPQLLIYLVSILDSGVPDRFSGSGSGTDFTLKISRVEAEDVGVYYCLQATHFPQTFGGGTKVEIKR |  | 0.31 nM |  |
| Fab 0088-Fab 0089 conjugate 9002 (bispecific antibody, C-terminal cysteine coupled through the bis-maleimide linker to the Fab 0088 heavy chain; C-terminal cysteine coupled through 1,16-N,N'-bis(maleimido)-4,13-diaza-7,10-dioxa-3,14-dioxohexadecane to the C-terminal cysteine of the Fab 0089 heavy chain) heavy 1: EVQLVESGGGLVKPGGSLRLSCAASGFTFSNYAMSWVRQTPEKRLEWVATISRSGSYSYFPDSVQGRFTISRDNAKNSLYLQMNSLRAEDTAVYYCARLGGYDEGDAMDSWGQGTTVTVSSASTKGPSVFPLAPCSRSTSESTAALGCLVKDYFPEPVTVSWNSGALTSGVHTFPAVLQSSGLYSLSSVVTVPSSSLGTKTYTCNVDHKPSNTKVDKRVESKYGPPC light 1: DIVMTQTPLSLSVTPGQPASISCKSSQSLLESDGKTYLNWYLQKPGQSPQLLIYLVSILDSGVPDRFSGSGSGTDFTLKISRVEAEDVGVYYCLQATHFPQTFGGGTKVEIKRTVAAPSVFIFPPSDEQLKSGTASVVCLLNNFYPREAKVQWKVDNALQSGNSQESVTEQDSKDSTYSLSSTLTLSKADYEKHKVYACEVTHQGLSSPVTKSFNRGEC heavy 2: QVQLQQSGAELVKPGASVKLSCKASGYTFISYYMYWVKQRPGQGLEWIGEINPSNGDTNLNEKFKSKATLTVDKSSSTVYMQLSSLTSEDSAVYYCTRWDRFDGFVYWGQGTLVTVSAASTKGPSVFPLAPCSRSTSESTAALGCLVKDYFPEPVTVSWNSGALTSGVHTFPAVLQSSGLYSLSSVVTVPSSSLGTKTYTCNVDHKPSNTKVDKRVESKYGPPC light 2: ETTVTQSPASLSMAIGGKVTIRCIISTNIDDDINWYQQKPGEPPKLLISEGNTLRPGVPSRFSSSGYGTDFVFTIENMLSEDVADYYCLQSDDLPYTFGGGTKLEIKRTVAAPSVFIFPPSDEQLKSGTASVVCLLNNFYPREAKVQWKVDNALQSGNSQESVTEQDSKDSTYSLSSTLTLSKADYEKHKVYACEVTHQGLSSPVTKSFNRGEC |  | 0.33 nM | 2 nM |

Further lines, results first:

| EC50 (read off the curve) [1] | EC50 [2] | EC50 (read off the curve) [3] | Binder |
| --- | --- | --- | --- |
| 1 nM | 0.11 nM |  | mAb 2021 (antibody, human IgG4 S228P, kappa, V domains shown) VH: EVQLVESGGGLVKPGGSLRLSCAASGFTFSNYAMSWVRQTPEKRLEWVATISRSGSYSYFPDSVQGRFTISRDNAKNSLYLQMNSLRAEDTAVYYCARLGGYDEGDAMDSWGQGTTVTVSS VL: DIVMTQTPLSLSVTPGQPASISCKSSQSLLESDGKTYLNWYLQKPGQSPQLLIYLVSILDSGVPDRFSGSGSGTDFTLKISRVEAEDVGVYYCLQATHFPQTFGGGTKVEIKR |
|  | 25.9 nM |  | Fab 0313 (Fab fragment of mAb 2000) (Fab, V domains shown) VH: EVQLVESGGGLVKPGGSLRLSCAASGFTFSNYAMSWVRQAPGKGLEWVSTISRSGSYSYYADSVKGRFTISRDNAKNSLYLQMNSLRAEDTAVYYCARLGGYDEGDAMDSWGQGTTVTVSS VL: DIVMTQTPLSLSVTPGQPASISCKSSQSLLESDGKTYLNWYLQKPGQSPQLLIYLVSILDSGVPDRFSGSGSGTDFTLKISRVEAEDVGVYYCLQATHFPQTFGGGTKVEIKR |
|  | 6.9 nM |  | Fab 0094-Fab 0089 conjugate 9004 (bispecific antibody, C-terminal cysteine coupled through the bis-maleimide linker to the Fab 0094 heavy chain; C-terminal cysteine coupled through 1,16-N,N'-bis(maleimido)-4,13-diaza-7,10-dioxa-3,14-dioxohexadecane to the C-terminal cysteine of the Fab 0089 heavy chain) heavy 1: EVQLVESGGGLVKPGGSLRLSCAASGFTFSNYAMSWVRQAPGKGLEWVSTISRSGSYSYYPDSVKGRFTISRDNAKNSLYLQMNSLRAEDTAVYYCARLGGYDEGDAMDSWGQGTTVTVSSASTKGPSVFPLAPCSRSTSESTAALGCLVKDYFPEPVTVSWNSGALTSGVHTFPAVLQSSGLYSLSSVVTVPSSSLGTKTYTCNVDHKPSNTKVDKRVESKYGPPC light 1: DIVMTQTPLSLSVTPGQPASISCKSSQSLLESDGKTYLNWYLQKPGQSPQLLIYLVSILDSGVPDRFSGSGSGTDFTLKISRVEAEDVGVYYCLQATHFPQTFGGGTKVEIKRTVAAPSVFIFPPSDEQLKSGTASVVCLLNNFYPREAKVQWKVDNALQSGNSQESVTEQDSKDSTYSLSSTLTLSKADYEKHKVYACEVTHQGLSSPVTKSFNRGEC heavy 2: QVQLQQSGAELVKPGASVKLSCKASGYTFISYYMYWVKQRPGQGLEWIGEINPSNGDTNLNEKFKSKATLTVDKSSSTVYMQLSSLTSEDSAVYYCTRWDRFDGFVYWGQGTLVTVSAASTKGPSVFPLAPCSRSTSESTAALGCLVKDYFPEPVTVSWNSGALTSGVHTFPAVLQSSGLYSLSSVVTVPSSSLGTKTYTCNVDHKPSNTKVDKRVESKYGPPC light 2: ETTVTQSPASLSMAIGGKVTIRCIISTNIDDDINWYQQKPGEPPKLLISEGNTLRPGVPSRFSSSGYGTDFVFTIENMLSEDVADYYCLQSDDLPYTFGGGTKLEIKRTVAAPSVFIFPPSDEQLKSGTASVVCLLNNFYPREAKVQWKVDNALQSGNSQESVTEQDSKDSTYSLSSTLTLSKADYEKHKVYACEVTHQGLSSPVTKSFNRGEC |

— patent publication US20180208675A1
